Experimental data as given in PMC7884259.

Molecular target: ATAD2B bromodomain (residues 953–1085) (human) (UniProt Q9ULI0)
Experiment: ITC

Chain of ATAD2B bromodomain (residues 953–1085) (human) (Q9ULI0 953-1085): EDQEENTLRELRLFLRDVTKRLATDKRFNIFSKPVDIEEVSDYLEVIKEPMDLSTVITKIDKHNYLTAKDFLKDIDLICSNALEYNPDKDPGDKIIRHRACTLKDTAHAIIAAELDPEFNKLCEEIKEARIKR

Kd [µM] | Substance
50.5 | H4K12ac (res 4–17) (peptide)
214 | H4K12acK16ac (res 10–20) (peptide)
